In experiment [1] the target is interferon-alpha/β receptor (IFNAR) (human) (UniProt P17181).
Experiment [2] has the same target. This is another data set of the same source.
Experiment [3] shares this target. This is another data set of the same source.

Sequence of interferon-alpha/β receptor (IFNAR) (human) (P17181 28-557 limits assumed): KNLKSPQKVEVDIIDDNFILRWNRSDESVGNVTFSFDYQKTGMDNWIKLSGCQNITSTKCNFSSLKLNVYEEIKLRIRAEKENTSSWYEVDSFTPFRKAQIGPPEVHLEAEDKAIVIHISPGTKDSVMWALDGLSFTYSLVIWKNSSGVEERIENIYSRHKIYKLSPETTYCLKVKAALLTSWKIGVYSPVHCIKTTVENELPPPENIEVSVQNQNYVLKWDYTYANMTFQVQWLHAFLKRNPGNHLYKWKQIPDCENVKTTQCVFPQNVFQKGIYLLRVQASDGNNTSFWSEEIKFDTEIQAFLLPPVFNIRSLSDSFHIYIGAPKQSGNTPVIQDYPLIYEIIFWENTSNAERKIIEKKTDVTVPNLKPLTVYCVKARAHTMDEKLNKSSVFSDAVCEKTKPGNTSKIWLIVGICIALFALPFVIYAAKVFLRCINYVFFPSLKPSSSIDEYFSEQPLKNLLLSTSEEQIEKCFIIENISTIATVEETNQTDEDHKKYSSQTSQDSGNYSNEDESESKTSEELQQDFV

Substance Intron A (ligand) registered an EC50; HEK-Blue IFN-alpha/β SEAP reporter (A630) on CD38-negative cells; table column headed 'IFNa2b', curve labelled 'Intron A', the unit comes from the x axis 'IFN pM' in experiment [1] of 1.52 pM. In experiment [2], the EC50; HEK-Blue IFN-alpha/β SEAP reporter (A630nm), left panel, the unit comes from the x axis 'Ifnα2b Equivalents in pM' was determined as 1.13 pM and the EC50; HEK-Blue IFN-alpha/β SEAP reporter (A630nm), right panel, the unit comes from the x axis 'IFNα2b equivlaents in pM' is 1.52 pM. In experiment [3], this substance came in with a half-maximal concentration headed 'IC50 pM' on the sheet (paragraph 233 calls the values EC50; the curves rise); iLite IFN-response-element luciferase reporter (RLU) of 0.0645 pM.

The values above are taken from patent publication US20180305460A1.
